Experiment [1] concerns the target T1, GLRX3C, GLRX3 mutant composed of only the C-terminal domains, expressed from 3xFLAG-CMV14/H14C (Homo sapiens, UniProt O76003 134-335).
T1 construct: Deletion construct; not shown: C-terminal 3xFLAG tag of the 3xFLAG-CMV14 vector and the BamHI-site linker to it
T1 sequence: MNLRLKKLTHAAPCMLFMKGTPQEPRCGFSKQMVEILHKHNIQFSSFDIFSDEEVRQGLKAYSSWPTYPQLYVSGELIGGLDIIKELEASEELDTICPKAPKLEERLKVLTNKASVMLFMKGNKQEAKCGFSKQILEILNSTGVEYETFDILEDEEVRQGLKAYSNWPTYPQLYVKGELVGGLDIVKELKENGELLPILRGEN
The experiment can be described thus: co-expression in HeLa cells, precipitation with Ni-NTA resin, western blot. (A western blot detects proteins with antibodies after separation by electrophoresis.)

For experiment [2], the target named is T2, Bacterial Alkaline Phasphatase (BAP) (UniProt P00634 22-471 = phosphatase).
T2 construct: Control
T2 sequence (P00634 22-471): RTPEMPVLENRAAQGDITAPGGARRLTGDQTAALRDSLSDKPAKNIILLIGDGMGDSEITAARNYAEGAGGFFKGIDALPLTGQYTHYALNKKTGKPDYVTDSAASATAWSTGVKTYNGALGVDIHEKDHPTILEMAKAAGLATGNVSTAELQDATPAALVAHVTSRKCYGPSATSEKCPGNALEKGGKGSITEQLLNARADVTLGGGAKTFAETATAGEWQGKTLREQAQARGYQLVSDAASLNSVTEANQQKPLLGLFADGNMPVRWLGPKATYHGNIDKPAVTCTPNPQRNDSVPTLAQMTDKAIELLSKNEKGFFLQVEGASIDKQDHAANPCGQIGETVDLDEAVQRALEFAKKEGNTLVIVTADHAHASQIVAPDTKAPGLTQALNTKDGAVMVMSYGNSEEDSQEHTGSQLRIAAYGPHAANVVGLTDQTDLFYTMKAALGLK
The experiment is described as above.
Method: Appropriate plasmid combination was transfected into HeLa cells using Lipofectamine Plus (Invitrogen). At 48 hours post-transfection, transfected cells were dissolved in the cell lysis buffer (10 mM Tris, pH 7.5, mM NaCl, 2 mM EDTA, 0.5% Triton X-100, 1 mM PMSF, and protease inhibitor cocktail (Roche Diagnostics, Mannheim, Germany)) to obtain total proteins. For secretary protein preparation, the culture medium was exchanged with a serum-free culture medium at 24 hours post transfection of the plasmid, followed by culturing again for 24 hours, and then the culture medium was collected. The collected culture medium was centrifuged to discard cell components. For immunoprecipitation of His-tagged proteins, 300 μg of total proteins and the culture medium were reacted with the Ni-NTA resin at 4 for 5 hours. After 5 hours, the reacted material was washed five times with a washing buffer (50 mM Tris, pH 7.5, 150 mM NaCl, and 0.5% Triton X-100), and then proteins attached to the resin were dissolved in the SDS sample buffer, followed by SDS-PAGE and then western blotting.

B1: PAUF-Myc/His from pcDNA3.1(+)-PAUF-Myc/His (other, UniProt Q96DA0 17-172, looked up)
chain: GKMYGPGGGKYFSTTEDYDHEITGLRVSVGLLLVKSVQVKLGDSWDVKLGALGGNTQEVTLQPGEYITKVFVAFQAFLRGMVMYTSKDRYFYFGKLDGQISSAYPSQEGQVLVGIYGQYQLLGIKSIGFEWNYPLEEPTTEPPVNLTYSANSPVGR
notes: In vivo experiment: expressed in HeLa cells, total proteins and culture medium reacted with Ni-NTA resin; also called PAUF-His; His-PAUF; not shown: Myc/His tag of the pcDNA3.1(+)-Myc/His vector (Invitrogen)
As for B1, the binding result in experiment [1] and in experiment [2] was “no binding” throughout.

These data come from patent US20140018304A1 (INDUSTRY ACADEMIC COOPERATION FOUNDATION YONSEI UNIVERSITY, published 2014).
